Values of other authors as cited in paper PMC3514653 (Neuromodulation : journal of the International …, 2012).

Conditions: dog, in vivo; cited from earlier work

B1: BDNF: large growth factor (27 KDa); recombinant-methionyl human brain-derived neurotrophic factor (protein, UniProt P23560 19-247, looked up)
Neurotrophic factor BDNF …: APMKEANIRGQGGLAYPGVRTHGTLESVNGPKAGSRGLTSLADTFEHVIEELLDEDQKVRPNEENNKDADLYTSRVMLSSQVPLEPPLLFLLEEYKNYLDAANMSMRVRRHSDPARRGELSVCDSISEWVTAADKKTAVDMSGGTVTVLEKVPVSKGQLKQYFYETKCNPMGYTKEGCRGIDKRHWNSQCRTTQSYVRALTMDSKKRIGWRFIRIDTSCVCTLTIKRGR
modifications: N-terminal methionine
- Clearance from the CSF (half-life): 42 min
